From PMC10869273 (Nature Biotechnology, 2023)

Molecular target: SARS-CoV-2 Omicron BA.1 receptor-binding domain (RBD) (SARS-CoV-2 Omicron BA.1, strain, biotin on the AviTag (expressed in the presence of BirA))

B1: REGN10987 VH R16G-V108D (antibody, V domains shown)
VH: QVQLVESGGGVVQPGGSLRLSCAASGFTFSNYAMYWVRQAPGKGLEWVAVISYDGSNKYYADSVKGRFTISRDNSKNTLYLQMNSLRTEDTAVYYCASGSDYGDYLLDYWGQGTLVTVSS
VL: QSALTQPASVSGSPGQSITISCTGTSSDVGGYNYVSWYQQHPGKAPKLMIYDVSKRPSGVSNRFSGSKSGNTASLTISGLQSEDEADYYCNSLTSISTWVFGGGTKLTVL
binding result: binds
